Data taken from patent publication US20040265972A1.

Molecular target: human TSH receptor stably expressed on Chinese Hamster Ovary (CHO) cells (CHO-hTSHR clone JP09 and clone JP26) (human) (UniProt P16473)
Assay: cell-based or functional assay

For “hTSH α4K/TSH-β-CTEP (heterodimer of mutant α4K subunit and human TSH-β subunit fused to the CTEP of hCG) (from UniProt P0DN86 134-165) (ligand)”, which Vmax (cyclic AMP production), fold increase compared to wild type TSH is on record?
The Vmax (cyclic AMP production), fold increase compared to wild type TSH was 1.5 fold.

And the in vitro activity, fold over that of the α4K/TSH-β wild type heterodimer?
Its in vitro activity, fold over that of the α4K/TSH-β wild type heterodimer is 3 to 4 fold.

And the potency (cyclic AMP production), fold increase compared to wild type TSH?
Its potency (cyclic AMP production), fold increase compared to wild type TSH is 200 fold.
